Measured values published in patent US20230067960A1 (VONSUN PHARMATECH, published 2023).
Non-standard residues stand in square brackets, D forms with d. No end group written: not given here. R1 = not defined here; R2 = not defined here; Aib = CC(C)(N)C(=O)O

T1: gastric inhibitory peptide receptor
T1 sequence (P48546 whole entry, species assumed, looked up): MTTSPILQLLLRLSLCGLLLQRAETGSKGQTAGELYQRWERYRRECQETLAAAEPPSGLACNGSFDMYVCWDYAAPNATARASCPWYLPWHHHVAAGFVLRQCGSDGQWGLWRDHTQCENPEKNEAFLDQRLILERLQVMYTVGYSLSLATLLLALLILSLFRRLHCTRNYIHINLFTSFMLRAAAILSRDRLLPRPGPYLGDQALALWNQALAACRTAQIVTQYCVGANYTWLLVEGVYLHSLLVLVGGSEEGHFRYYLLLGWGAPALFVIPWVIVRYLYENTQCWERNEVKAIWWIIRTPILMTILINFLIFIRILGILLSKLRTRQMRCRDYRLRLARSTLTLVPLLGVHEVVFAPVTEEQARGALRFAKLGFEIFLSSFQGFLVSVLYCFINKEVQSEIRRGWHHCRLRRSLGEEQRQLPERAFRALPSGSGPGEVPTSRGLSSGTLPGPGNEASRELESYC

B1: triple agonist peptide of SEQ ID NO: 1 (peptide)
peptide: H[Aib]QGTFTSDLSRAMEKIAVRLFIEWLREGGPSSGAPPPS
modifications: ends and bridges not checked
B2: triple agonist peptide of SEQ ID NO: 4 (peptide)
peptide: H[Aib]QGTFTSDLSRAMEKEAVRLFIEWLIDGGPSSGAPPPS
modifications: ends and bridges not checked
B3: triple agonist peptide of SEQ ID NO: 5 (peptide)
peptide: H[Aib]QGTFTSDLSAAMEKIAVRLFIEWLREGGPSSGAPPPS
modifications: ends and bridges not checked
B4: triple agonist peptide of SEQ ID NO: 6 (peptide)
peptide: H[Aib]QGTFTSDLSRAMEKIAVRLFIEWLIEGGPSSGAPPPS
modifications: ends and bridges not checked
B5: triple agonist peptide of SEQ ID NO: 7 (peptide)
peptide: H[Aib]QGTFTSDLSRALEKIAARLFIEWLIEGGPSSGAPPPS
modifications: ends and bridges not checked
B6: triple agonist peptide of SEQ ID NO: 8 (peptide)
peptide: H[Aib]QGTFTSDLSLAQEKEAVRLFIEWLREGGPSSGAPPPS
modifications: ends and bridges not checked
B7: triple agonist peptide of SEQ ID NO: 9 (peptide)
peptide: H[Aib]QGTFTSDLSLEQEKIAVRLFIEWLREGGPSSGAPPPS
modifications: ends and bridges not checked
B8: triple agonist peptide of SEQ ID NO: 10 (peptide)
peptide: H[Aib]QGTFTSDLSRYLEKEAVRLFIEWLIDGGPSSGAPPPS
modifications: ends and bridges not checked
B9: triple agonist peptide of SEQ ID NO: 11, chemically modified with R1 side chain (peptide)
peptide: H[Aib]QGTFTSDLSRAMEK(R1)IAVRLFIEWLIEGGPSSGAPPPS-NH2
modifications: reading uncertain
B10: triple agonist peptide of SEQ ID NO: 13, chemically modified with R2 side chain (peptide)
peptide: H[Aib]QGTFTSDLSRAMEK(R2)IAVRLFIEWLIEGGPSSGAPPPS-NH2
modifications: reading uncertain
B11: triple agonist peptide of SEQ ID NO: 2 (peptide)
peptide: H[Aib]QGTFTSDLSRAMEKEAVRLFIEWLREGGPSSGAPPPS
modifications: ends and bridges not checked
B12: triple agonist peptide of SEQ ID NO: 14, chemically modified with R2 side chain (peptide)
peptide: H[Aib]QGTFTSDLSRALEK(R2)IAARLFIEWLIEGGPSSGAPPPS-NH2
modifications: reading uncertain
B13: triple agonist peptide of SEQ ID NO: 3 (peptide)
peptide: H[Aib]QGTFTSDLSRAMEKEAVRLFIEWLIEGGPSSGAPPPS
modifications: ends and bridges not checked

target: glucagon-like peptide-1 receptor; assay: cell-based or functional assay

| Binder | In vitro activity relative to native polypeptide (%), relative to GLP-1 (cAMP HTRF, from EC50) [%] |
| --- | --- |
| B1 | 64.7 |
| B2 | 71.4 |
| B3 | 38.4 |
| B4 | 116 |
| B5 | 47.5 |
| B6 | 123 |
| B7 | 136 |
| B8 | 71.6 |
| B9 | 191 |
| B10 | 217 |
| B11 | 104 |
| B12 | 57 |
| B13 | 67.7 |

target: glucagon receptor; assay: cell-based or functional assay

| Binder | In vitro activity relative to native polypeptide (%), relative to GCG (cAMP HTRF, from EC50) [%] |
| --- | --- |
| B1 | 1.33 |
| B2 | 2.17 |
| B3 | 0.72 |
| B4 | 0.89 |
| B5 | 18.3 |
| B6 | 1.21 |
| B7 | 20.1 |
| B8 | 21.8 |
| B9 | 3.89 |
| B10 | 16.1 |
| B11 | 25.1 |
| B12 | 0.49 |
| B13 | 12.2 |

target: T1, gastric inhibitory peptide receptor; assay: cell-based or functional assay

| Binder | In vitro activity relative to native polypeptide (%), relative to GIP (cAMP HTRF, from EC50) [%] |
| --- | --- |
| B1 | 3.99 |
| B2 | 7.37 |
| B3 | 1.99 |
| B4 | 3.27 |
| B5 | 5.74 |
| B6 | 2.02 |
| B7 | 95.8 |
| B8 | 94.7 |
| B9 | 2.53 |
| B10 | 9.83 |
| B11 | 34 |
| B12 | 3.38 |
| B13 | 12.1 |
